Data: patent publication US20140357838A1, “N-Terminally Modified Insulin Derivatives” (Novo Nordisk A/S, priority 2011, published 2014)
Starred links: 1 amine or outer side, 2 acyl side, 3 side chain; linkers in the order of their positions; H or OH if unused. Positions of bridges follow the written chain, without caps; N, C: chain ends. Groups on a side chain read outwards from the residue. Chains are numbered I, II in the order given. No end group written: not given here. *: point of attachment. Phe(Nα-CONH2) = NC(=O)N[C@@H](Cc1ccccc1)C(=O)*; C20 diacid = O=C(O)CCCCCCCCCCCCCCCCCCC(=O)*; C18 diacid = O=C(O)CCCCCCCCCCCCCCCCC(=O)*; NMe2Phe = CN(C)[C@@H](Cc1ccccc1)C(=O)*; γGlu = O=C(O)[C@H](CCC(=O)[*:2])N[*:1]; Hydantoyl = NC(=O)NCC(=O)*; AEEA = NCCOCCOCC(=O)O; Me2Gly = CN(C)CC(=O)*

Assays:
[1] = Chemical stability of insulin derivatives in 2 mM phosphate (SEC-HPLC and RP-HPLC); format: physicochemical; settings: 4 weeks 37° C. minus 5° C. start sample; for Chemical degradation (%) (4 weeks 37° C.- 0 weeks 5° C.): pH 7.5, RP-HPLC; for HMWP Formation (%) (4 weeks 37° C.- 0 weeks 5° C.): pH 7.5, SEC-HPLC
Protocol: Chemical stability of an insulin derivative is assessed after incubating insulin derivative in 2 mM phosphate, pH=7.5 at 37° C. for up to 8 weeks. Formation of high molecular weight products (HMWP) is determined by SEC HPLC analysis after 0, 2, 4 and optionally 8 weeks. The results of the SEC method are given as a difference between HMWP formation at 37° C. and 5° C. start sample as a percentage of total absorbance at 215 nm. Chemical degradation products are determined by RP HPLC analysis after 0, 2, 4 and optionally 8 weeks. The results of the RP method are given as a difference between chemical degradation observed at 37° C. and 5° C. start sample as a percentage of total absorbance at 215 nm.
• Solvent: 500 mM NaCl, 10 mM NaH2PO4, 5 mM H3PO4, 50% (v/v) 2-propanol • Flow: 0.5 ml/min • Run time: 30 min • UV Detection: 215 nm • Column: Insulin HMWP column from Waters 7.8×300 mm • Temperature: 50° C.
• Solvent A: 0.09M phosphate buffer pH 3.6 (di-ammoniumhydrogenphosphate), 10% MeCN (v/v) • Solvent B: 80% MeCN (v/v %) • Flow: 0.3 ml/min • Runtime: 33 min • UV Detection: 215 nm • Column: Waters Acquity BEH130 C18 Column 1.7 μm, 150×2.1 mm • Temperature: 50° C. • Gradient: […]

[2] = molecular target: T1, human insulin receptor (Homo sapiens, UniProt P06213); assay: Insulin receptor affinity, SPA assay with […] HSA in binding buffer; settings: relative to the affinity of human insulin
T1 sequence (P06213 28-746 isoform P06213-2 limits assumed): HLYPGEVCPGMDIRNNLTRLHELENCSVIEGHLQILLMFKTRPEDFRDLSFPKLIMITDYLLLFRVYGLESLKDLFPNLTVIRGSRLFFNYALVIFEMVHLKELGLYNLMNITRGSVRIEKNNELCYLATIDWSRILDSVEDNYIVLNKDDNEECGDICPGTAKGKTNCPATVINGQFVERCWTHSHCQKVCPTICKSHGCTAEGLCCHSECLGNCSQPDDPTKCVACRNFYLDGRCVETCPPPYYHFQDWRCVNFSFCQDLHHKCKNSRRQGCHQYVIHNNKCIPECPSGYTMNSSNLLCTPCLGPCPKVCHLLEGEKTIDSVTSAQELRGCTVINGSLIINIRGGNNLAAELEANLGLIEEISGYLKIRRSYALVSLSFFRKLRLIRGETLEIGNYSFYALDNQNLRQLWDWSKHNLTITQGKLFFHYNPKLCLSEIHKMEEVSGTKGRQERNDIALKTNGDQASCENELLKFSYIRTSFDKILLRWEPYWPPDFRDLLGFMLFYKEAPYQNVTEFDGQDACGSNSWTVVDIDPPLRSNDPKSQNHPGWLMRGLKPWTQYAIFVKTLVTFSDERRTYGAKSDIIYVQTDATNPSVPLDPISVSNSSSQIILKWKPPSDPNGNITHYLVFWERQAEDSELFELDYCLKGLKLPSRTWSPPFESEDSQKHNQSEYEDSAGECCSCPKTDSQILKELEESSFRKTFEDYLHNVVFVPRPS
T1 sequence (P06213 763-1382 partner limits assumed): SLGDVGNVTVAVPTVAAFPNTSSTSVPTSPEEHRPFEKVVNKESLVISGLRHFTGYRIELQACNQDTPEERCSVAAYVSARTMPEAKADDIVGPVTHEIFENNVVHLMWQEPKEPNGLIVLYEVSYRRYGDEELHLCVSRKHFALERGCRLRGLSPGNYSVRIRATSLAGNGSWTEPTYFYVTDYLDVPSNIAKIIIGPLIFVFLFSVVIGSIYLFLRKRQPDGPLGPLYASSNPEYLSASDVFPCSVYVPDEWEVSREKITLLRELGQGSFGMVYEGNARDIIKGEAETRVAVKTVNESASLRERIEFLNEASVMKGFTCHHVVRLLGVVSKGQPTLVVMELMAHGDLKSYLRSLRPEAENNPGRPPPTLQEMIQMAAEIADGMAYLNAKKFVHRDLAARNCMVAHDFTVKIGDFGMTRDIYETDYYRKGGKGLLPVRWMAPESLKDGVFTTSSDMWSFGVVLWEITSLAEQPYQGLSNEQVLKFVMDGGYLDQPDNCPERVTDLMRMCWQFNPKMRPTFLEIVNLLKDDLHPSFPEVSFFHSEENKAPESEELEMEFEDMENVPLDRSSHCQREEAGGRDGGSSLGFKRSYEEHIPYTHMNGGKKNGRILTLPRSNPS
Protocol: (§1) SPA-PVT antibody-binding beads, anti-mouse reagent (Amersham Bio-sciences, Cat No. PRNQ0017) are mixed with 25 ml of binding buffer (100 mM HEPES pH 7.8; 100 mM sodium chloride, 10 mM MgSO4, 0.025% Tween-20). […] A total of 100 μl reagent mix is then added to each well in the Packard Optiplate and a dilution series of the N-terminally modified insulin is made in the Optiplate from appropriate samples. The samples are then incubated for 16 hours while gently shaken. The phases are the then separated by centrifugation for 1 min and the plates counted in a Topcounter.

[3] = molecular target: T1, human insulin receptor; assay: Insulin receptor affinity, SPA antibody capture assay (0% HSA); format: binding; settings: relative to the affinity of human insulin
Protocol: as §1

[4] = Hydrophobicity by isocratic reverse phase HPLC; format: physicochemical; settings: k'rel, isocratic RP-HPLC, pH 7.3, human insulin = 1
Protocol: The hydrophobicity of an N-terminally modified insulin is found by reverse phase HPLC run under isocratic conditions. […] The hydrophobicity, k′rel, is calculated as: k′relderiv=((tderiv−t0)(tref−t0)*k′relref. Using HI as reference: k′relref=k′relHI=1. The void time of the HPLC system, t0, is determined by injecting 5 μl of 0.1 mM NaNO3. Running conditions:
Column: Lichrosorb RP-C18, 5 μm, 4×250 mm
Buffer A: 0.1 M natrium phosphate pH 7.3, 10 vol % CH3CN
After running an initial gradient, the isocratic level for running the derivative and reference (for example HI) is chosen, and the elution times of the derivative and reference under isocratic conditions are used in the above equation to calculate k′relderiv.

Substance	Chemical degradation (%) (4 weeks 37° C.- 0 weeks 5° C.) [1]	HMWP Formation (%) (4 weeks 37° C.- 0 weeks 5° C.) [1]	Relative IR-A affinity (@ […] HSA) (%)e [2] [%]	Relative IR-A affinity (@ 0% HSA) (%) [3] [%]	Hydrophobicity rel. to human insulin [4]
I: Me2Gly-VCQHLCGSHLVEALYLVCGERGFHYPK([γGlu-C18 diacid]) / II: Me2Gly-IVEQCCTSCCSLEQLENYCN (disulfide I:2-II:9, I:6-II:6, I:18-II:19, II:5-II:10) [Example 7, A1(N^α,N^α-Dimethyl), A10C, A14E, B1G(N^α,N^α-dimethyl), B3C, B25H, desB27, B29K(N^εoctadecanedioyl-gGlu), desB30 Human Insulin]	0.6	0.4			
I: NMe2Phe-VCQHLCGSHLVEALHLVCGERGFHYTPK([γGlu-C18 diacid]) / II: Me2Gly-IVEQCCTSCCSLEQLENYCN (disulfide I:2-II:9, I:6-II:6, I:18-II:19, II:5-II:10) [Example 4, A1(N^α,N^α-Dimethyl), A10C, A14E, B1(N^α,N^α-dimethyl), B3C, B16H, B25H, B29K(N^εoctadecanedioyl-gGlu), desB30 Human Insulin]	8.7	−0.4			
I: NMe2Phe-VCQHLCGSHLVEALHLVCGERGFHYTPK([AEEA-AEEA-γGlu-C18 diacid]) / II: Me2Gly-IVEQCCTSCCSLEQLENYCN (disulfide I:2-II:9, I:6-II:6, I:18-II:19, II:5-II:10) [Example 13, A1(N^α,N^α-Dimethyl), A10C, A14E, B1(N^α,N^α-dimethyl), B3C, B16H, B25H, B29K(N^εoctadecanedioyl-gGlu-2×OEG), desB30 Human Insulin]	9.8				
I: {Phe(Nα-CONH2)}-VCQHLCGSHLVEALYLVCGERGFFYPK([γGlu-C18 diacid]) / II: Hydantoyl-IVEQCCTSCCSLEQLENYCN (disulfide I:2-II:9, I:6-II:6, I:18-II:19, II:5-II:10) [Example 36, A1(N^α-Carbamoyl), A10C, A14E, B1(N^α-carbamoyl), B3C, desB27, B29K(N^εoctadecanedioyl-gGlu), desB30 Human Insulin]			0.01	0.7	
I: NMe2Phe-VCQHLCGSHLVEALYLVCGERGFHYTPK([AEEA-AEEA-γGlu-C18 diacid]) / II: Me2Gly-IVEQCCTSCCSLEQLENYCN (disulfide I:2-II:9, I:6-II:6, I:18-II:19, II:5-II:10) [Example 12, A1(N^α,N^α-Dimethyl), A10C, A14E, B1(N^α,N^α-dimethyl), B3C, B25H, B29K(N^εoctadecanedioyl-gGlu-2×OEG), desB30 Human Insulin]					0.077
I: Me2Gly-VCQHLCGSHLVEALYLVCGERGFFYPK([γGlu-C18 diacid]) / II: Me2Gly-IVEQCCTSCCSLEQLENYCN (disulfide I:2-II:9, I:6-II:6, I:18-II:19, II:5-II:10) [Example 9, A1(N^α,N^α-Dimethyl), A10C, A14E, B1G(N^α,N^α-dimethyl), B3C, desB27, B29K(N^εoctadecanedioyl-gGlu), desB30 Human Insulin]	5.7				
I: Me2Gly-VCQHLCGSHLVEALYLVCGERGFHYTPK([AEEA-AEEA-γGlu-C18 diacid]) / II: Me2Gly-IVEQCCTSCCSLEQLENYCN (disulfide I:2-II:9, I:6-II:6, I:18-II:19, II:5-II:10) [Example 16, A1(N^α,N^α-Dimethyl), A10C, A14E, B1G(N^α,N^α-dimethyl), B3C, B25H, B29K(N^εoctadecanedioyl-gGlu-2×OEG), desB30 Human Insulin]	58.0	42.7			
I: Me2Gly-VCQHLCGSHLVEALYLVCGERGFFYPK([AEEA-AEEA-γGlu-C18 diacid]) / II: Me2Gly-IVEQCCTSCCSLEQLENYCN (disulfide I:2-II:9, I:6-II:6, I:18-II:19, II:5-II:10) [Example 14, A1(N^α,N^α-Dimethyl), A10C, A14E, B1G(N^α,N^α-dimethyl), B3C, desB27, B29K(N^εoctadecanedioyl-gGlu-2×OEG), desB30 Human Insulin]		0.0			
I: NMe2Phe-VCQHLCGSHLVEALYLVCGERGFHYTPK([γGlu-C18 diacid]) / II: Me2Gly-IVEQCCTSCCSLEQLENYCN (disulfide I:2-II:9, I:6-II:6, I:18-II:19, II:5-II:10) [Example 3, A1(N^α,N^α-Dimethyl), A10C, A14E, B1(N^α,N^α-dimethyl), B3C, B25H, B29K(N^εoctadecanedioyl-gGlu), desB30 Human Insulin]	3.4				0.065
I: Me2Gly-VCQHLCGSHLVEALHLVCGERGFHYTPK([γGlu-C18 diacid]) / II: Me2Gly-IVEQCCTSCCSLEQLENYCN (disulfide I:2-II:9, I:6-II:6, I:18-II:19, II:5-II:10) [Example 8, A1(N^α,N^α-Dimethyl), A10C, A14E, B1G(N^α,N^α-dimethyl), B3C, B16H, B25H, B29K(N^εoctadecanedioyl-gGlu), desB30 Human Insulin]	66.4	54.5			
I: NMe2Phe-VCQHLCGSHLVEALYLVCGERGFHYTPK([γGlu-C20 diacid]) / II: Me2Gly-IVEQCCTSCCSLEQLENYCN (disulfide I:2-II:9, I:6-II:6, I:18-II:19, II:5-II:10) [Example 19, A1(N^α,N^α-Dimethyl), A10C, A14E, B1(N^α,N^α-dimethyl), B3C, B25H, B29K(N^εeicosanedioyl-gGlu), desB30 Human Insulin]	11.7	34.6			
I: NMe2Phe-VCQHLCGSHLVEALYLVCGERGFHYPK([γGlu-C20 diacid]) / II: Me2Gly-IVEQCCTSCCSLEQLENYCN (disulfide I:2-II:9, I:6-II:6, I:18-II:19, II:5-II:10) [Example 18, A1(N^α,N^α-Dimethyl), A10C, A14E, B1(N^α,N^α-dimethyl), B3C, B25H, desB27, B29K(N^εeicosanedioyl-gGlu), desB30 Human Insulin]	4.2	5.1	0.02	0.72	0.12
I: Me2Gly-VCQHLCGSHLVEALYLVCGERGFHYPK([AEEA-AEEA-γGlu-C18 diacid]) / II: Me2Gly-IVEQCCTSCCSLEQLENYCN (disulfide I:2-II:9, I:6-II:6, I:18-II:19, II:5-II:10) [Example 15, A1(N^α,N^α-Dimethyl), A10C, A14E, B1G(N^α,N^α-dimethyl), B3C, B25H, desB27, B29K(N^εoctadecanedioyl-gGlu-2×OEG), desB30 Human Insulin]	10.4	1.2			
